Reference: the RNAGym collection of RNA variant scans (doi:10.1093/nar/gkz1192)

B1: CPEB3 Ribozyme (parent)
chain: UAACAGGGGGCCACAGCAGAAGCGUUCACGUCGCAGCCCCUGUCAGAUUCUGGUGAAUCUGCGAAUUCUGCUGUAUAUCUC

Variants of: B1
Assay: self-cleavage, relative activity (ratio to wild type); higher = more cleavage; in vitro, sequencing
Procedure, shortened: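 After error-prone PCR and barcoding, CPEB3 ribozyme mutant libraries were transcribed with T7 RNA polymerase at 37°C for 5 hours, then given 15 min with DNase I before an EDTA stop, and they cleaved during both steps. Reverse transcription with template switching preceded Illumina sequencing. Relative activity divides a variant's cleaved/total read fraction by the unmutated ribozyme's. At least 5 reads were required per variant, and three batches were averaged.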
U43A A56G showed a self-cleavage of 0.97. U43A A56C showed a self-cleavage of 0.73. In the case of U43A A56U, the self-cleavage is reported as 0.88. With G42C A57G the self-cleavage was 0.25. U41G U43C showed a self-cleavage of 0.33. Variant U41G U43A has a self-cleavage of 0.28. U43A C71U showed a self-cleavage of 0.49. Variant U43A C79A has a self-cleavage of 1.22. For G42A A57U, the self-cleavage was 0.18. G42A A57G showed a self-cleavage of 0.16. With U41G U60C the self-cleavage was 0.18. In the case of U41G U60A, the self-cleavage is reported as 0.16. In the case of G42U U76C, the self-cleavage is reported as 0.93. Variant G42A U78C has a self-cleavage of 0.21. With G42A U60C the self-cleavage was 0.34. In the case of G42A U60A, the self-cleavage is reported as 0.3. U41G U69G gave a self-cleavage of 0.22. U41G U69C showed a self-cleavage of 0.19. In the case of U41G U69A, the self-cleavage is reported as 0.36. U43A A57C gave a self-cleavage of 0.47. In the case of U43A A57G, the self-cleavage is reported as 1.05. Work on U43A A57U yielded a self-cleavage of 1.11. U43A C44U showed a self-cleavage of 1.11. Work on G42C U49C yielded a self-cleavage of 0.1. With U43A C59G the self-cleavage was 0.41. In the case of G42U A75G, the self-cleavage is reported as 0.19. Variant G42U U80C has a self-cleavage of 0.51. Work on G42U U74C yielded a self-cleavage of 0.35. G42A C59G gave a self-cleavage of 0.23. Variant G42A A45C has a self-cleavage of 0.32. G42A A45G gave a self-cleavage of 0.3. Work on U43A G55A yielded a self-cleavage of 0.77. Work on G42A C44G yielded a self-cleavage of 0.11. With G42A U49A the self-cleavage was 0.21. Variant U43A G63A has a self-cleavage of 1.13. U43A G63U showed a self-cleavage of 1.26. G42A G63U gave a self-cleavage of 0.35. Work on G42U U58A yielded a self-cleavage of 0.11. U41G U58A showed a self-cleavage of 0.33. In the case of U41G U58C, the self-cleavage is reported as 0.18. Variant U41G U58G has a self-cleavage of 0.16. U41G U49C gave a self-cleavage of 0.38. U43A A77C gave a self-cleavage of 1.18. With U43A A77U the self-cleavage was 1.23. For U43A A77G, the self-cleavage was 1.2. Variant U41G C44A has a self-cleavage of 0.13. For G42U U43A, the self-cleavage was 0.54. G42U U43C gave a self-cleavage of 0.43. Variant U41G U48C has a self-cleavage of 0.36. Variant G42A C79U has a self-cleavage of 0.36. G42A C79A showed a self-cleavage of 0.33. For G42U G53A, the self-cleavage was 0.31. In the case of U41G U78A, the self-cleavage is reported as 0.26. With U41G U78C the self-cleavage was 0.21. In the case of U41G U78G, the self-cleavage is reported as 0.2. Variant G42U A77U has a self-cleavage of 0.37. Variant U41G C81U has a self-cleavage of 0.33. Work on G42A yielded a self-cleavage of 0.34. G42C gave a self-cleavage of 0.51. Variant G42U has a self-cleavage of 0.31. U41G U80C gave a self-cleavage of 0.29. With U41G U80A the self-cleavage was 0.26. Variant U43A A64U has a self-cleavage of 0.51. Work on U43A A64G yielded a self-cleavage of 1.04. In the case of G42A A75G, the self-cleavage is reported as 0.28. Work on U43A G53A yielded a self-cleavage of 1.2. In the case of U41G U76C, the self-cleavage is reported as 0.27. U41G U76A showed a self-cleavage of 0.14. G42A U48C showed a self-cleavage of 0.33. U43A U48C showed a self-cleavage of 0.71. Variant G42U U67C has a self-cleavage of 0.08. Work on U43A G52U yielded a self-cleavage of 1.26. U43A G52C gave a self-cleavage of 1.19. Work on U43A G52A yielded a self-cleavage of 1.23. Work on G42A C81G yielded a self-cleavage of 0.35. In the case of G42A C81U, the self-cleavage is reported as 0.4. Work on G42U U66C yielded a self-cleavage of 0.48. Variant G42U U66G has a self-cleavage of 0.32. Work on G42U U66A yielded a self-cleavage of 0.26. Work on G42U U49C yielded a self-cleavage of 0.02. In the case of G42A U76G, the self-cleavage is reported as 0.26. For G42A U76C, the self-cleavage was 0.41. Work on G42A U69A yielded a self-cleavage of 0.08. Work on G42A A64U yielded a self-cleavage of 0.14. In the case of G42A A64G, the self-cleavage is reported as 0.21. With G42U A56U the self-cleavage was 0.48. Variant G42U A56G has a self-cleavage of 0.49. Work on G42A U72C yielded a self-cleavage of 0.37. With G42A U72A the self-cleavage was 0.18. For U41G G52C, the self-cleavage was 0.14. Variant U43A has a self-cleavage of 1.17. Work on G42A U43G yielded a self-cleavage of 0.32. G42A U43C showed a self-cleavage of 0.29. With U43A C62U the self-cleavage was 0.39. For U43A G70U, the self-cleavage was 0.54. U41G U66C gave a self-cleavage of 0.2. For U43A A47G, the self-cleavage was 1.06. Work on U43A A47U yielded a self-cleavage of 0.63. In the case of U41G C71G, the self-cleavage is reported as 0.33. G42A G53C gave a self-cleavage of 0.29. U43A G73A gave a self-cleavage of 1.28. Variant U43A G73U has a self-cleavage of 1.26. U43A U51A showed a self-cleavage of 0.97. U43A U51G gave a self-cleavage of 1.15. Variant U43A U51C has a self-cleavage of 0.88. For U41G U51G, the self-cleavage was 0.27. For U41G U51A, the self-cleavage was 0.37. For U41G U51C, the self-cleavage was 0.21. Variant G42U A64U has a self-cleavage of 0.13. G42A U66C showed a self-cleavage of 0.38. Work on G42A G70C yielded a self-cleavage of 0.13. Variant G42A G70A has a self-cleavage of 0.19. With G42A U51C the self-cleavage was 0.29. U43A A65G gave a self-cleavage of 0.93. In the case of U43A A65U, the self-cleavage is reported as 0.57. For G42U U69G, the self-cleavage was 0.14. Variant U43A A75U has a self-cleavage of 1.19. Variant U43A A75G has a self-cleavage of 1.01. Variant U43A A75C has a self-cleavage of 1.36. G42A A77U showed a self-cleavage of 0.39. G42A U74C showed a self-cleavage of 0.64. Variant U41G U54G has a self-cleavage of 0.23. With U41G U54C the self-cleavage was 0.38. Variant U41G U72G has a self-cleavage of 0.41. With U41G U72A the self-cleavage was 0.14. With U41G U72C the self-cleavage was 0.35. G42U U60C showed a self-cleavage of 0.17. G42U U60A gave a self-cleavage of 0.21. In the case of G42A U58C, the self-cleavage is reported as 0.25. In the case of G42A U58A, the self-cleavage is reported as 0.21. In the case of U43A A45C, the self-cleavage is reported as 0.39. With U43A A45G the self-cleavage was 0.75. Work on U43A A45U yielded a self-cleavage of 0.82. Work on G42A A56U yielded a self-cleavage of 0.28. In the case of G42A A56G, the self-cleavage is reported as 0.16. Variant G42A A65U has a self-cleavage of 0.3. For G42A A65G, the self-cleavage was 0.42. Variant G42A A65C has a self-cleavage of 0.24. For G42A U67A, the self-cleavage was 0.14. For G42A U67C, the self-cleavage was 0.21. With G42C U48A the self-cleavage was 0.13. G42A A47G showed a self-cleavage of 0.42. Variant G42C U72C has a self-cleavage of 0.21. U43A G46U gave a self-cleavage of 0.45. Variant U43A G46A has a self-cleavage of 0.44. For G42C U74C, the self-cleavage was 0.3. Variant G42A G55U has a self-cleavage of 0.08. U41G U74C gave a self-cleavage of 0.35. Variant U41G U74A has a self-cleavage of 0.37. G42C U60C gave a self-cleavage of 0.24. In the case of U43A G61A, the self-cleavage is reported as 0.97. U43A G61C gave a self-cleavage of 0.36. U43A C68U gave a self-cleavage of 1.15. G42A U80A gave a self-cleavage of 0.79. G42A U80C showed a self-cleavage of 0.36. With U41G U67A the self-cleavage was 0.2. For U41G U67C, the self-cleavage was 0.17. G42U A57G gave a self-cleavage of 0.19. U43A U49A showed a self-cleavage of 0.8. Variant U43A U49C has a self-cleavage of 0.53. Variant U43A U49G has a self-cleavage of 0.52. Work on U43A C50A yielded a self-cleavage of 1.07. G42C U43C gave a self-cleavage of 0.14. Work on G42C U43A yielded a self-cleavage of 0.33. With G42A U54C the self-cleavage was 0.57. G42A U54A gave a self-cleavage of 0.45. Work on G42U A47G yielded a self-cleavage of 0.18.
